{"source": "paper PMC8915372", "target": "HLA-A*03:01 (HLA class I molecule of HLA-A3+ NBS fibroblasts) (human | human (endogenous in NBS fibroblasts))", "experiment": "affinity purification with mass spectrometry"}
{"binder": "ATFYVRTTINK", "note": "[A3-RPL28^74-84(p76S>F) 11-mer peptide]", "values": [{"measurement": "amount of peptide detected by PRM in the HLA class I eluate (fmol/million cells)", "result": 3.67}]}
